Among the data in PMC4627802, “Fine Mapping of the Interaction between C4b-Binding Protein and Outer Membrane Proteins LigA and LigB of Pathogenic Leptospira interrogans” (PLoS Neglected Tropical Diseases, 2015) are percent reduction of binding with 10 mg/ml heparin, percent decrease of binding and Kd values, retold here.

For assay [1], the target named is LigA10-11 (L. interrogans). The assay can be described thus: ELISA; Lig tandem-domain constructs immobilised; 1 μg of C4BP mixed with heparin (0-10 mg/ml); detected with mouse monoclonal anti-C4BP α/β chains; binding without heparin set as 100%.
Another assay addresses LigB7-8 (L. interrogans). The description is as above.
The target in assay [2] is LigB9-10 (L. interrogans). The description is as above.
For assay [3], the target named is LigBC (fragment of leptospiral immunoglobulin-like protein B, residues 631-1156) (L. interrogans). In words: ELISA; LigA, LigB or LcpA immobilised; commercial C4BP in 10 mM Na2HPO4, 1.8 mM KH2PO4 with NaCl 0 to 600 mM; detected with polyclonal rabbit anti-C4BP; binding without NaCl set as 100%. (In an ELISA, binding on a coated surface is turned into a signal by an enzyme label.)

The target in a further assay is LcpA (L. interrogans). Described as above.
The target in assay [4] is Human purified C4BP (α7β1) (human) (UniProt P04003). The assay can be described thus: ELISA; increasing concentrations of Lig proteins with a fixed amount of C4BP (1 μg); Kd estimated by nonlinear regression, Y = Bmax*X/(Kd + X).
In assay [5] the target is T1, Human purified C4BP (α7β1) (human, UniProt P04003 49-597; P20851 18-252).
T1 construct: also called C4BP WT (commercial); source: bought: Complement Technology (Texas, USA), human purified; copies: 7 + 1
T1 sequence 1: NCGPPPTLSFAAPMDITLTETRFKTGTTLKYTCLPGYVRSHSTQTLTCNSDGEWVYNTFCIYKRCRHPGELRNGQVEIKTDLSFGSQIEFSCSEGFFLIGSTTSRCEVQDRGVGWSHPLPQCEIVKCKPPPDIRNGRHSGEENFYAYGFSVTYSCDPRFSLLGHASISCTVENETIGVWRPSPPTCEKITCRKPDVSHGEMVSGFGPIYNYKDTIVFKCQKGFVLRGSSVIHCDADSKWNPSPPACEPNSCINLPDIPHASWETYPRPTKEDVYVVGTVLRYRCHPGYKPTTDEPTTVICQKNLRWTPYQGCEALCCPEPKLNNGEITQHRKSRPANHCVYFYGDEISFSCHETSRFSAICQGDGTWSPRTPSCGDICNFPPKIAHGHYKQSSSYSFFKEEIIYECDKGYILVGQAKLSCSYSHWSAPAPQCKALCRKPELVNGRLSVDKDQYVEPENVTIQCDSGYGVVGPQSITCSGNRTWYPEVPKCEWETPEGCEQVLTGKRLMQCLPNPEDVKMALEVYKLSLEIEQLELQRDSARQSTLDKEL
T1 sequence 2: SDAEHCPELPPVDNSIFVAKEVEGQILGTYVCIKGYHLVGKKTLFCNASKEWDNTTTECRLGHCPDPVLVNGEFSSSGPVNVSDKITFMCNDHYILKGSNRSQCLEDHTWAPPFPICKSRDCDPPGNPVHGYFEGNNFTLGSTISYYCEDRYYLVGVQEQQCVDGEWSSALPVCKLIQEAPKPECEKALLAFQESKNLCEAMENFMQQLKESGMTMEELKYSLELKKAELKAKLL
The assay is described as above. The settings on record: both partners purified.

On to “Human purified C4BP (α7β1) (from UniProt P04003 49-597; P20851 18-252) (complex)”, for which the percent reduction of binding with 10 mg/ml heparin was found to be 35% in assay [1], 45% with LigB7-8 (L. interrogans) and 27% in assay [2]. Moreover, the percent decrease of binding at 150 mM NaCl in assay [3] turned out to be 45%; with LcpA (L. interrogans), 30%.
For the molecule “LigBC (fragment of leptospiral immunoglobulin-like protein B, residues 631-1156) (domain or fragment)”, in assay [4], the Kd (usually the free concentration of one partner at which half of the binding sites on the other are occupied at equilibrium, for simple one-to-one binding) was 51.6 nM.

B1: LigAC (C-terminal fragment of leptospiral immunoglobulin-like protein A, residues 631-1225) (domain or fragment)
chain: LTVSNTNAKRGLGSTLKQGTVKVTASMGGIEDSVDFTVTQATLTSIEVSPTRASIAKGMTQKFTATGIFTDHSKKNITEQVTWKSSSKALSMLNAPGEEGTGKAIAVGKTTITATLEKLSGKTDITVTPAVLTSIQISPVKHSLVKGLTEKFSATGIYSDNSNKDITSSVTWHSSNNSVATISNTKGYQGQAYGTGTGTVNIKATLGNVSSQVSKLSVTAAELTEIVLNPTSSHKAKGLTENFKATGVFTDNSTKDITDQVTWKSSNAAYAKISNATGSKGVVNALSKGTSHISATLGSISSANATFQVTPARIASIEVTPNNFFLIKGLSHPFKAIGIYTDNTKTDITKQVSWSSSDPNVASIDNTFSLAGSATAIDDGKTNITATLSDSMSASTTLYVTSAVLIDIEVKPSIFVLSEGLTLQLTATGIYSDHSTHDLTQVVQWTSSKPSNIAIENTAGKKGKVTALAFGDSEFTATYDSIKSNRAWIFVNDEKLVNITISSSQVLTDKGSAQQFKAIGTFQGGSQLDLTDLVTWKSSDSKVVSISNSNDDRGLTTALSVGSSKISAIYGSIHSDSIDFEVTPEILASIKTEP
For B1, in assay [5], the Kd was 88.8 ± 7.8 nM.
